According to the supplement of paper PMC9112550, “Optimization of the antimicrobial peptide Bac7 by deep mutational scanning” (BMC Biology, 2022):

Tested on: Escherichia coli TOP10
Test: shrunken log2 fold change of peptide-encoding DNA abundance (4.5 h post-induction vs induction); higher = less antimicrobial activity (less host growth inhibition)
Details: time post-induction: 4.5 h; library: site-saturation at positions 5, 18, 19, 20
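Further: peptides expressed intracellularly from a pBAD plasmid library in pooled LB shake-flask culture, induced with 0.3% L-arabinose, DNA abundance read by NGS, three biological replicates, DESeq2 with apeglm shrinkage.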

| Sequence | shrunken log2 fold change |
| --- | --- |
| RRIRRRPPRLPRPRPRPKSRPRP | 0.174 |
| RRIRMRPPRLPRPRPRPFSNPRP | -0.175 |
| RRIRSRPPRLPRPRPRPYHEPRP | -1.19 |
| RRIRERPPRLPRPRPRPGKSPRP | -0.00212 |
| RRIRMRPPRLPRPRPRPYATPRP | -0.0602 |
| RRIRPRPPRLPRPRPRPDAEPRP | 0.496 |
| RRIRSRPPRLPRPRPRPVEMPRP | 0.0369 |
| RRIRDRPPRLPRPRPRPHEIPRP | -0.0115 |
| RRIRLRPPRLPRPRPRPTDWPRP | 0.947 |
| RRIRKRPPRLPRPRPRPERKPRP | 0.582 |
| RRIRHRPPRLPRPRPRPYGNPRP | -0.298 |
| RRIRNRPPRLPRPRPRPQDQPRP | -0.222 |
| RRIRARPPRLPRPRPRPDERPRP | 0.423 |
| RRIRFRPPRLPRPRPRPCTFPRP | -0.0554 |
| RRIRMRPPRLPRPRPRPAPGPRP | 2.04 |
| RRIRPRPPRLPRPRPRPSSDPRP | -0.317 |
| RRIRVRPPRLPRPRPRPDCWPRP | 0.135 |
| RRIRQRPPRLPRPRPRPWYVPRP | -0.0198 |
| RRIRARPPRLPRPRPRPPHDPRP | 1.02 |
| RRIRHRPPRLPRPRPRPRNIPRP | -0.326 |
| RRIRGRPPRLPRPRPRPSNMPRP | -0.113 |
| RRIRVRPPRLPRPRPRPTDAPRP | 0.0111 |
| RRIRRRPPRLPRPRPRPSAWPRP | 0.462 |
| RRIRWRPPRLPRPRPRPMDMPRP | -0.0589 |
| RRIRFRPPRLPRPRPRPNPKPRP | 0.0977 |

| Sequence | shrunken log2 fold change |
| --- | --- |
| RRIRSRPPRLPRPRPRPRRMPRP | 0.141 |
| RRIRWRPPRLPRPRPRPECLPRP | 0.444 |
| RRIRARPPRLPRPRPRPYLLPRP | -0.76 |
| RRIRPRPPRLPRPRPRPEYKPRP | -0.293 |
| RRIRARPPRLPRPRPRPYNLPRP | -0.00894 |
| RRIRDRPPRLPRPRPRPIQPPRP | 0.00911 |
| RRIRYRPPRLPRPRPRPWKRPRP | 0.047 |
| RRIRFRPPRLPRPRPRPGEAPRP | 0.416 |
| RRIRHRPPRLPRPRPRPSGNPRP | -0.199 |
| RRIRHRPPRLPRPRPRPPDGPRP | 0.178 |
| RRIRVRPPRLPRPRPRPFGIPRP | -0.371 |
| RRIRKRPPRLPRPRPRPEQGPRP | 0.199 |
| RRIRKRPPRLPRPRPRPHDEPRP | 0.261 |
| RRIRLRPPRLPRPRPRPYLIPRP | -0.274 |
| RRIRSRPPRLPRPRPRPQRWPRP | 0.319 |
| RRIRRRPPRLPRPRPRPEKCPRP | -0.00259 |
| RRIRERPPRLPRPRPRPGPHPRP | 0.00422 |
| RRIRFRPPRLPRPRPRPNPGPRP | 0.159 |
| RRIRDRPPRLPRPRPRPESIPRP | -0.0509 |
| RRIRYRPPRLPRPRPRPHEVPRP | -0.0317 |
| RRIRERPPRLPRPRPRPTMQPRP | 0.0612 |
| RRIRNRPPRLPRPRPRPFWCPRP | 0.000145 |
| RRIRKRPPRLPRPRPRPNDGPRP | -0.0887 |
| RRIRTRPPRLPRPRPRPMNWPRP | -0.234 |
| RRIRPRPPRLPRPRPRPHNTPRP | -0.481 |

| Sequence | shrunken log2 fold change |
| --- | --- |
| RRIRSRPPRLPRPRPRPFCWPRP | 0.651 |
| RRIRKRPPRLPRPRPRPESSPRP | -0.000321 |
| RRIRSRPPRLPRPRPRPCAYPRP | -0.431 |
| RRIRIRPPRLPRPRPRPNANPRP | -0.252 |
| RRIRCRPPRLPRPRPRPYEHPRP | -0.554 |
| RRIRTRPPRLPRPRPRPFGNPRP | 0.101 |
| RRIRIRPPRLPRPRPRPSENPRP | -0.356 |
| RRIRFRPPRLPRPRPRPFRNPRP | 0.0579 |
| RRIRDRPPRLPRPRPRPVYKPRP | -0.601 |
| RRIRSRPPRLPRPRPRPIIFPRP | -0.35 |
| RRIRFRPPRLPRPRPRPLAFPRP | -0.134 |
| RRIRQRPPRLPRPRPRPMDEPRP | 0.0268 |
| RRIRNRPPRLPRPRPRPWAAPRP | -0.109 |
| RRIRNRPPRLPRPRPRPIATPRP | -0.0576 |
| RRIRSRPPRLPRPRPRPLPMPRP | 0.256 |
| RRIRIRPPRLPRPRPRPIQWPRP | 0.0166 |
| RRIRRRPPRLPRPRPRPGRQPRP | 0.541 |
| RRIRPRPPRLPRPRPRPCMQPRP | -0.358 |
| RRIRTRPPRLPRPRPRPVGYPRP | 0.35 |
| RRIRLRPPRLPRPRPRPLKYPRP | -0.0803 |
| RRIRNRPPRLPRPRPRPLDEPRP | 0.126 |
| RRIRDRPPRLPRPRPRPHFPPRP | -0.0339 |
| RRIRMRPPRLPRPRPRPTVLPRP | 0.477 |
| RRIRDRPPRLPRPRPRPAHSPRP | -0.143 |
| RRIRNRPPRLPRPRPRPKNLPRP | 0.13 |

| Sequence | shrunken log2 fold change |
| --- | --- |
| RRIRGRPPRLPRPRPRPPLCPRP | 0.616 |
| RRIRKRPPRLPRPRPRPPASPRP | 0.424 |
| RRIRARPPRLPRPRPRPHMCPRP | -0.174 |
| RRIRRRPPRLPRPRPRPACDPRP | 0.539 |
| RRIRARPPRLPRPRPRPHGAPRP | 0.52 |
| RRIRPRPPRLPRPRPRPLWFPRP | 0.173 |
| RRIRMRPPRLPRPRPRPMADPRP | 1.11 |
| RRIRLRPPRLPRPRPRPFESPRP | -0.168 |
| RRIRRRPPRLPRPRPRPLAVPRP | 0.176 |
| RRIRMRPPRLPRPRPRPFETPRP | -0.00884 |
| RRIRYRPPRLPRPRPRPPQRPRP | 0.00441 |
| RRIRNRPPRLPRPRPRPWIFPRP | -0.201 |
| RRIRYRPPRLPRPRPRPRPPPRP | 1.01 |
| RRIRNRPPRLPRPRPRPGHYPRP | -0.171 |
| RRIRWRPPRLPRPRPRPENLPRP | 0.0583 |
| RRIRSRPPRLPRPRPRPCYQPRP | 0.0321 |
| RRIRSRPPRLPRPRPRPRMAPRP | 1.31 |
| RRIRHRPPRLPRPRPRPTVCPRP | 0.196 |
| RRIRERPPRLPRPRPRPSRMPRP | -0.0294 |
| RRIRVRPPRLPRPRPRPPREPRP | 0.267 |
| RRIRSRPPRLPRPRPRPNQDPRP | -0.3 |
| RRIRQRPPRLPRPRPRPKWPPRP | 0.166 |
| RRIRSRPPRLPRPRPRPKPKPRP | 0.545 |
| RRIRERPPRLPRPRPRPQQFPRP | -0.0731 |
| RRIRDRPPRLPRPRPRPRCMPRP | -0.158 |

| Sequence | shrunken log2 fold change |
| --- | --- |
| RRIRKRPPRLPRPRPRPEFGPRP | 0.0185 |
| RRIRARPPRLPRPRPRPRFRPRP | 0.459 |
| RRIRPRPPRLPRPRPRPPRMPRP | 0.412 |
| RRIRLRPPRLPRPRPRPSECPRP | 0.215 |
| RRIRTRPPRLPRPRPRPGSCPRP | 0.083 |
| RRIRHRPPRLPRPRPRPFAQPRP | -0.163 |
| RRIRSRPPRLPRPRPRPGRAPRP | 1.02 |
| RRIRYRPPRLPRPRPRPRHHPRP | -0.846 |
| RRIRPRPPRLPRPRPRPDADPRP | 0.0741 |
| RRIRYRPPRLPRPRPRPNILPRP | -1.9 |
| RRIRIRPPRLPRPRPRPTMKPRP | -0.309 |
| RRIRGRPPRLPRPRPRPPQWPRP | 0.801 |
| RRIRIRPPRLPRPRPRPGRLPRP | 0.12 |
| RRIRFRPPRLPRPRPRPSNEPRP | -0.378 |
| RRIRNRPPRLPRPRPRPGVQPRP | 0.444 |
| RRIRGRPPRLPRPRPRPKISPRP | 0.477 |
| RRIRCRPPRLPRPRPRPIRGPRP | 0.0532 |
| RRIRNRPPRLPRPRPRPNLIPRP | -0.369 |
| RRIRCRPPRLPRPRPRPEVPPRP | -0.119 |
| RRIRHRPPRLPRPRPRPPNEPRP | 0.159 |
| RRIRSRPPRLPRPRPRPMGAPRP | 0.188 |
| RRIRLRPPRLPRPRPRPKHGPRP | -0.0363 |
| RRIRPRPPRLPRPRPRPYMSPRP | -0.636 |
| RRIRLRPPRLPRPRPRPIFNPRP | -0.221 |
| RRIRQRPPRLPRPRPRPPMLPRP | 0.117 |

| Sequence | shrunken log2 fold change |
| --- | --- |
| RRIRGRPPRLPRPRPRPRKKPRP | 0.774 |
| RRIRCRPPRLPRPRPRPNFPPRP | 0.346 |
| RRIRSRPPRLPRPRPRPWWAPRP | -0.0137 |
| RRIRIRPPRLPRPRPRPCLTPRP | 0.0747 |
| RRIRLRPPRLPRPRPRPSWGPRP | 0.00407 |
| RRIRGRPPRLPRPRPRPIKKPRP | 0.00565 |
| RRIRQRPPRLPRPRPRPFTYPRP | -0.0211 |
| RRIRHRPPRLPRPRPRPNCMPRP | -0.0153 |
| RRIRFRPPRLPRPRPRPMHAPRP | 0.0753 |
| RRIRPRPPRLPRPRPRPMQTPRP | 0.119 |
| RRIRLRPPRLPRPRPRPQHYPRP | -0.761 |
| RRIRHRPPRLPRPRPRPTIAPRP | 0.451 |
| RRIRIRPPRLPRPRPRPGSCPRP | 0.968 |
| RRIRGRPPRLPRPRPRPNRPPRP | -0.211 |
| RRIRGRPPRLPRPRPRPRRNPRP | 0.609 |
| RRIRNRPPRLPRPRPRPNLAPRP | -0.137 |
| RRIRSRPPRLPRPRPRPIASPRP | 0.0102 |
| RRIRARPPRLPRPRPRPMKMPRP | 0.0994 |
| RRIRMRPPRLPRPRPRPFTPPRP | -0.397 |
| RRIRMRPPRLPRPRPRPYYRPRP | 0.0143 |
| RRIRKRPPRLPRPRPRPLPQPRP | 0.729 |
| RRIRVRPPRLPRPRPRPIWLPRP | -0.106 |
| RRIRARPPRLPRPRPRPYAWPRP | -0.129 |
| RRIRVRPPRLPRPRPRPTPYPRP | -0.0655 |
| RRIRGRPPRLPRPRPRPRENPRP | 0.978 |
